Values quoted from earlier work as cited in patent publication US20200069786A1, “COMPOSITION AND PROCESS FOR PREPARING VACCINE” (TREOS BIO ZRT., priority 2018, published 2020).
Like-named read-outs stand apart in the source and are kept apart here.

Tested on: TSA
[1] = TSA expression rate in GASTRIC cancer
[2] = TSA expression rate in HEAD and NECK
[3] = TSA expression rate in LEUKEMIAS
[4] = TSA expression rate in LUNG cancer
[5] = TSA expression rate in MELANOMA
[6] = TSA expression rate in BLADDER cancer
[7] = TSA expression rate in Cervical cancer
[8] = TSA expression rate in Esophageal
[9] = TSA expression rate in PROSTATE cancer
[10] = TSA expression rate in PEDIATRIC

B1: SSX-5 (protein, UniProt O60225 1-188, looked up)
Protein SSX5: MNGDDAFVRRPRVGSQIPEKMQKAFDDIAKYFSEKEWEKMKASEKIIYVYMKRKYEAMTKLGFKATLPPFMRNKRVADFQGNDFDNDPNRGNQVEHPQMTFGRLQGIFPKITPEKPAEEGNDSKGVPEASGPQNNGKQLRPSGKLNTSEKVNKTSGPKRGKHAWTHRVRERKQLVIYEEISDPQEDDE
For B1, the “TSA Expression Rate (ER)” value (BRAIN) is given as 0%, the “TSA Expression Rate (ER)” value (BREAST) is given as 0% and the “TSA Expression Rate (ER)” value (HCC) is given as 37%. For the same molecule, the “TSA Expression Rate (ER)” value (OVARIAN) was 0%, the “TSA Expression Rate (ER)” value (THYROID) was 0% and the “Expression Rate (ER) %” value (TSA expression rate in CRC) was 2%. For the same molecule, the “Expression Rate (ER) %” value [1] was 0%, the “Expression Rate (ER) %” value [2] was 7% and the “Expression Rate (ER) %” value (TSA expression rate in Kidney) was 0%. For the same molecule, the “Expression Rate (ER) %” value [3] was 24%, the “Expression Rate (ER) %” value [4] was 4% and the “Expression Rate (ER) %” value [5] was 5%.

B2: EpCAM (protein, UniProt P16422 24-314, looked up)
Epithelial cell adhesion …: QEECVCENYKLAVNCFVNNNRQCQCTSVGAQNTVICSKLAAKCLVMKAEMNGSKLGRRAKPEGALQNNDGLYDPDCDESGLFKAKQCNGTSMCWCVNTAGVRRTDKDTEITCSERVRTYWIIIELKHKAREKPYDSKSLRTALQKEITTRYQLDPKFITSILYENNVITIDLVQNSSQKTQNDVDIADVAYYFEKDVKGESLFHSKKMDLTVNGEQLDLDPGQTLIYYVDEKAPEFSMQGLKAGVIAVIVVVVIAVVAGIVVLVISRKKRMAKYEKAEIKEMGEMHRELNA
For B2, the “TSA Expression Rate (ER)” value (BRAIN) is listed as 16%, the “TSA Expression Rate (ER)” value (BREAST) is listed as 76% and the “TSA Expression Rate (ER)” value (HCC) is listed as 41%. For the same molecule, the “TSA Expression Rate (ER)” value (LUNG) was 78%, the “TSA Expression Rate (ER)” value (OVARIAN) was 92% and the “TSA Expression Rate (ER)” value (PANCREATIC) was 85%. The “TSA Expression Rate (ER)” value (THYROID) was 83%, the “Expression Rate (ER) %” value [6] was 54% and the “Expression Rate (ER) %” value (TSA expression rate in CRC) was 88%. The “Expression Rate (ER) %” value [7] was 36%, the “Expression Rate (ER) %” value [8] was 81% and the “Expression Rate (ER) %” value [1] was 90%. For the same molecule, the “Expression Rate (ER) %” value (TSA expression rate in Kidney) was 55% and the “Expression Rate (ER) %” value [9] was 98%.

B3: XAGE-1 (protein, UniProt Q9HD64 1-81, looked up)
X antigen family member 1: MESPKKKNQQLKVGILHLGSRQKKIRIQLRSQCATWKVICKSCISQTPGINLDLGSGVKVKIIPKEEHCKMPEAGEEQPQV
For B3, the “TSA Expression Rate (ER)” value (BRAIN) is given as 18%, the “TSA Expression Rate (ER)” value (BREAST) is given as 58% and the “TSA Expression Rate (ER)” value (HCC) is given as 33%. The “TSA Expression Rate (ER)” value (LUNG) was 25%, the “TSA Expression Rate (ER)” value (OVARIAN) was 5% and the “Expression Rate (ER) %” value [2] was 40%. The “Expression Rate (ER) %” value [5] was 7% and the “Expression Rate (ER) %” value [10] was 53%.

B4: MAGE-A2 (protein, UniProt P43356 1-314, looked up)
Melanoma-associated antigen 2: MPLEQRSQHCKPEEGLEARGEALGLVGAQAPATEEQQTASSSSTLVEVTLGEVPAADSPSPPHSPQGASSFSTTINYTLWRQSDEGSSNQEEEGPRMFPDLESEFQAAISRKMVELVHFLLLKYRAREPVTKAEMLESVLRNCQDFFPVIFSKASEYLQLVFGIEVVEVVPISHLYILVTCLGLSYDGLLGDNQVMPKTGLLIIVLAIIAIEGDCAPEEKIWEELSMLEVFEGREDSVFAHPRKLLMQDLVQENYLEYRQVPGSDPACYEFLWGPRALIETSYVKVLHHTLKIGGEPHISYPPLHERALREGEE
For B4, the “TSA Expression Rate (ER)” value (BRAIN) is listed as 28%, the “TSA Expression Rate (ER)” value (HCC) is listed as 25% and the “TSA Expression Rate (ER)” value (LUNG) is listed as 40%. For the same molecule, the “TSA Expression Rate (ER)” value (OVARIAN) was 7%, the “TSA Expression Rate (ER)” value (THYROID) was 9% and the “Expression Rate (ER) %” value [6] was 25%. For the same molecule, the “Expression Rate (ER) %” value (TSA expression rate in CRC) was 18%, the “Expression Rate (ER) %” value [8] was 53% and the “Expression Rate (ER) %” value [1] was 31%. The “Expression Rate (ER) %” value [2] was 38%, the “Expression Rate (ER) %” value (TSA expression rate in Kidney) was 7% and the “Expression Rate (ER) %” value [3] was 11%. For the same molecule, the “Expression Rate (ER) %” value [5] was 62%, the “Expression Rate (ER) %” value [10] was 60% and the “Expression Rate (ER) %” value [9] was 18%.

B5: MAGE-C1 (protein, UniProt O60732 1-1142, looked up)
Melanoma-associated antigen C1: MGDKDMPTAGMPSLLQSSSESPQSCPEGEDSQSPLQIPQSSPESDDTLYPLQSPQSRSEGEDSSDPLQRPPEGKDSQSPLQIPQSSPEGDDTQSPLQNSQSSPEGKDSLSPLEISQSPPEGEDVQSPLQNPASSFFSSALLSIFQSSPESTQSPFEGFPQSVLQIPVSAASSSTLVSIFQSSPESTQSPFEGFPQSPLQIPVSRSFSSTLLSIFQSSPERTQSTFEGFAQSPLQIPVSPSSSSTLLSLFQSFSERTQSTFEGFAQSSLQIPVSPSFSSTLVSLFQSSPERTQSTFEGFPQSPLQIPVSSSSSSTLLSLFQSSPERTHSTFEGFPQSLLQIPMTSSFSSTLLSIFQSSPESAQSTFEGFPQSPLQIPGSPSFSSTLLSLFQSSPERTHSTFEGFPQSPLQIPMTSSFSSTLLSILQSSPESAQSAFEGFPQSPLQIPVSSSFSYTLLSLFQSSPERTHSTFEGFPQSPLQIPVSSSSSSSTLLSLFQSSPECTQSTFEGFPQSPLQIPQSPPEGENTHSPLQIVPSLPEWEDSLSPHYFPQSPPQGEDSLSPHYFPQSPPQGEDSLSPHYFPQSPQGEDSLSPHYFPQSPPQGEDSMSPLYFPQSPLQGEEFQSSLQSPVSICSSSTPSSLPQSFPESSQSPPEGPVQSPLHSPQSPPEGMHSQSPLQSPESAPEGEDSLSPLQIPQSPLEGEDSLSSLHFPQSPPEWEDSLSPLHFPQFPPQGEDFQSSLQSPVSICSSSTSLSLPQSFPESPQSPPEGPAQSPLQRPVSSFFSYTLASLLQSSHESPQSPPEGPAQSPLQSPVSSFPSSTSSSLSQSSPVSSFPSSTSSSLSKSSPESPLQSPVISFSSSTSLSPFSEESSSPVDEYTSSSDTLLESDSLTDSESLIESEPLFTYTLDEKVDELARFLLLKYQVKQPITKAEMLTNVISRYTGYFPVIFRKAREFIEILFGISLREVDPDDSYVFVNTLDLTSEGCLSDEQGMSQNRLLILILSIIFIKGTYASEEVIWDVLSGIGVRAGREHFAFGEPRELLTKVWVQEHYLEYREVPNSSPPRYEFLWGPRAHSEVIKRKVVEFLAMLKNTVPITFPSSYKDALKDVEERAQAIIDTTDDSTATESASSSVMSPSFSSE
In the case of B5, the “TSA Expression Rate (ER)” value (BRAIN) is given as 13%, the “TSA Expression Rate (ER)” value (BREAST) is given as 16% and the “TSA Expression Rate (ER)” value (HCC) is given as 20%. The “TSA Expression Rate (ER)” value (OVARIAN) was 20%, the “TSA Expression Rate (ER)” value (PANCREATIC) was 0% and the “TSA Expression Rate (ER)” value (THYROID) was 22%. For the same molecule, the “Expression Rate (ER) %” value [6] was 27%, the “Expression Rate (ER) %” value [8] was 12% and the “Expression Rate (ER) %” value [1] was 6%. The “Expression Rate (ER) %” value [2] was 15%, the “Expression Rate (ER) %” value (TSA expression rate in Kidney) was 0% and the “Expression Rate (ER) %” value [3] was 70%. The “Expression Rate (ER) %” value [4] was 19%, the “Expression Rate (ER) %” value (TSA expression rate in LYMPHOMAS) was 13% and the “Expression Rate (ER) %” value [5] was 45%. For the same molecule, the “Expression Rate (ER) %” value [10] was 39%.

B6: MORC1 (protein, UniProt Q86VD1 1-984, looked up)
MORC family CW-type zinc …: MDDRYPALQRAQLRLDFIHANSTTHSFLFGALAELLDNARDAGAERLDVFSVDNEKLQGGFMLCFLDDGCGMSPEEASDIIYFGRSKKRLSTLKFIGQYGNGLKSGSMRIGKDFILFTKKEETMTCVFFSQTFCEEESLSEVVVPMPSWLIRTRESVTDDPQKFAMELSIIYKYSPFKTEAELMQQFDVIYGKCGTLLVIYNLKLLLNGEPELDVKTDKEDILMAGALEDFPARWSFRAYTSVLYFNPWMRIFIQAKRVKTKHLCYCLYRPRKYLYVTSSFKGAFKDEVKKAEEAVKIAESILKEAQIKVNQCDRTSLSSAKDVLQRALEDVEAKQKNLKEKQRELKTARTLSLFYGVNVENRSQAGMFIYSNNRLIKMHEKVGSQLKLKSLLGAGVVGIVNIPLEVMEPSHNKQEFLNVQEYNHLLKVMGQYLVQYCKDTGINNRNLTLFCNEFGYQNDIDVEKPLNSFQYQRRQAMGIPFIIQCDLCLKWRVLPSSTNYQEKEFFDIWICANNPNRLENSCHQVECLPSIPLGTMSTISPSKNEKEKQLRESVIKYQNRLAEQQPQPQFIPVDEITVTSTCLTSAHKENTKTQKIRLLGDDLKHESLSSFELSASRRGQKRNIEETDSDVEYISETKIMKKSMEEKMNSQQQRIPVALPENVKLAERSQRSQIANITTVWRAQPTEGCLKNAQAASWEMKRKQSLNFVEECKVLTEDENTSDSDIILVSDKSNTDVSLKQEKKEIPLLNQEKQELCNDVLAMKRSSSLPSWKSLLNVPMEDVNLSSGHIARVSVSGSCKVASSPASSQSTPVKETVRKLKSKLREILLYFFPEHQLPSELEEPALSCELEQCPEQMNKKLKMCFNQIQNTYMVQYEKKIKRKLQSIIYDSNTRGIHNEISLGQCENKRKISEDKLKNLRIKLALLLQKLQLGGPEGDLEQTDTYLEALLKEDNLLFQNNLNKVTIDARHRLPLEKNEKTSEN
In the case of B6, the “TSA Expression Rate (ER)” value (BREAST) is given as 0%, the “TSA Expression Rate (ER)” value (OVARIAN) is given as 14% and the “TSA Expression Rate (ER)” value (THYROID) is given as 0%. For the same molecule, the “Expression Rate (ER) %” value (TSA expression rate in CRC) was 0%, the “Expression Rate (ER) %” value [7] was 0% and the “Expression Rate (ER) %” value (TSA expression rate in Kidney) was 0%. For the same molecule, the “Expression Rate (ER) %” value [4] was 18%, the “Expression Rate (ER) %” value [5] was 19% and the “Expression Rate (ER) %” value [9] was 0%.

B7: CRISP2 (protein, UniProt P16562 22-243, looked up)
Cysteine-rich secretory …: KDPAFTALLTTQLQVQREIVNKHNELRKAVSPPASNMLKMEWSREVTTNAQRWANKCTLQHSDPEDRKTSTRCGENLYMSSDPTSWSSAIQSWYDEILDFVYGVGPKSPNAVVGHYTQLVWYSTYQVGCGIAYCPNQDSLKYYYVCQYCPAGNNMNRKNTPYQQGTPCAGCPDDCDKGLCTNSCQYQDLLSNCDSLKNTAGCEHELLKEKCKATCLCENKIY
In the case of B7, the “TSA Expression Rate (ER)” value (BREAST) is given as 15%, the “TSA Expression Rate (ER)” value (LUNG) is given as 29% and the “TSA Expression Rate (ER)” value (OVARIAN) is given as 14%. For the same molecule, the “TSA Expression Rate (ER)” value (THYROID) was 0%, the “Expression Rate (ER) %” value (TSA expression rate in CRC) was 0% and the “Expression Rate (ER) %” value [7] was 17%. The “Expression Rate (ER) %” value [2] was 11%, the “Expression Rate (ER) %” value (TSA expression rate in Kidney) was 14% and the “Expression Rate (ER) %” value [5] was 6%. For the same molecule, the “Expression Rate (ER) %” value [9] was 38%.
